Source: US20250333518A1 (ROCK BIOMEDICAL, published 2025)

T1: CD20 (UniProt P11836 1-297, limits assumed)
T1 construct: also called the antigen (of Rituximab and Obinutuzumab)
T1 sequence (looked up): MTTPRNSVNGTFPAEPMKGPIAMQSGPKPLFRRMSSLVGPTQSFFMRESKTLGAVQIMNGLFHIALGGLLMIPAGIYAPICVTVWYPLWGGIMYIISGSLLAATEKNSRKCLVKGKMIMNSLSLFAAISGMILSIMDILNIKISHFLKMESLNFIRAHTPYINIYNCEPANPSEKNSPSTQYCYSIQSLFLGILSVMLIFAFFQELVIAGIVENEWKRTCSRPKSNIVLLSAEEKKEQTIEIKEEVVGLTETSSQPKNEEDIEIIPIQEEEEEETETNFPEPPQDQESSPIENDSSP


Biological target: T1, CD20
Assay: ELISA, target binding

EC50 [nM]	Binder
0.77	Rituximab (MabThera® or Rituxan®) population produced by the SAII A3 Fut8 KO cells according to the present disclosure (antibody, human IgG1, kappa, V domains shown, N-glycan: sialylated complex type glycans around 83.4% of the glycans, no core fucose, Differs from the commercial product in the glycan profile only; also called Biobetter Rituximab; glycoengineered MabThera®) VH: QVQLQQPGAELVKPGASVKMSCKASGYTFTSYNMHWVKQTPGRGLEWIGAIYPGNGDTSYNQKFKGKATLTADKSSSTAYMQLSSLTSEDSAVYYCARSTYYGGDWYFNVWGAGTTVTVSA VL: QIVLSQSPAILSASPGEKVTMTCRASSSVSYIHWFQQKPGSSPKPWIYATSNLASGVPVRFSGSGSGTSYSLTISRVEAEDAATYYCQQWTSNPPTFGGGTKLEIKR
0.544	Rituximab, commercially available product (MabThera®) (antibody, human IgG1, kappa, V domains shown, Bought product; also called Rituxan) VH: QVQLQQPGAELVKPGASVKMSCKASGYTFTSYNMHWVKQTPGRGLEWIGAIYPGNGDTSYNQKFKGKATLTADKSSSTAYMQLSSLTSEDSAVYYCARSTYYGGDWYFNVWGAGTTVTVSA VL: QIVLSQSPAILSASPGEKVTMTCRASSSVSYIHWFQQKPGSSPKPWIYATSNLASGVPVRFSGSGSGTSYSLTISRVEAEDAATYYCQQWTSNPPTFGGGTKLEIKR
